Laboratory results as given in the DeepSol protein solubility set.

assay: soluble on expression in E. coli; label from the status in PepcDB or PDB records

| Sequence | soluble on expression in E. coli |
| --- | --- |
| MPTPGTGSVPELQLVPFQLGHFPILQRWFATEKELVQWAGPALRHPLSLEQMHEDLAESRRRPPLRLLWSACRDDQVIGHCQLLFDRRNGVVRLARIVLAPSARGQGLGLPMLEALLAEAFADADIERVELNVYDWNAAARHLYRRAGFREEGLRRSATRVGRERWNVVLMGLLRQEWAAGGAGND | soluble |
| MPTRKSKILDVALSNSVISNLNIMAPIGSSDHNTIKFTVQLLQNISVPKKMIPDFSKLDWPCCATYFENIEWGHIRTMFSQAVPTMPMPETSKPVPQYLRSFEQMVKNQFSKTIMSKTMNDFIEYIYLARKYRKKLRKYLSNLEVKLFKKKGNTLIDNDENEIVSELDKANLLASYFEAQYTNQNNTNFALDDDFVSDQPIPWVTDAEVLKVIMASKKSCSVTSDQVPFTFIKILSPLISSVLAQIFNLSMMRGQVPHAWTESIVIPLDKITNANNPTDFRPISLTSHLCRVYERCILAKIELFLIDNKFWSQNQHGFRPKKSTVTNMLESLNDWSKSIDLGEQIDIIYLDFSKAFDRLPHDLLLDKLVSLRMNKNLLIWLNEFLSNRSFRVRIGQTLSSRKLATCGVPQGAVLSPLLFGIYVNDISSILPEKVACKQFADDTKLYVSTPKTESENNLQSALDAVVDWTRGSKLTLNQSETVHVTVGKRRTDFKYHLDGYPIERKAITRDLGFLISEKLDFSEHWRKCINLAKFQLANMFNQYSTSNKKLMILLYKTFIRPRLEYGTVVSSPTKKSDEKAIESVQNAFTRRLYSRIKKRYINPTDKDYKTAMERNELFDLQTLSTRRKIIDRIQVIRMNNGKVDLKTSEFFEQQETHTRSKKKYIWSTVPIKHRVFQTFILLMVLVQFSIGLGNFARDIRNFGGAGSGNKTCDPSRDNDCDSPATVPSSTTKAPRYRNNTTESPPPTPPSSPPAPEGIYSFLQNNFIPRKINNLPVFQDVTTKGIQHVILVSSRLRTSLQTEKSRISQNSISYLIIDFLKSITLEIEALTNTSNCKPNSKDLRCPGKPLFCKFKNFDAAECKCSEPRAKVCKEDFEFDAQREYCTKSVKHPKDLRCEGELLFFKFHWNTTACHCINHQRDRVCAHDFQSDEDKKYQCNKKPTDLRCKKQKLYCKFHLDDKDCRCFESNQKACKKGVSGFYSSNDTLKFPSSIWRQFKLYFKKILQIFNRQMRGIFNVIHHRLHHSARKT | not soluble |
| MPTTIEREFEELDTQRRWQPLYLEIRNESHDYPHRVAKFPENRNRNRYRDVSPYDHSRVKLQNAENDYINASLVDIEEAQRSYILTQGPLPNTCCHFWLMVWQQKTKAVVMLNRIVEKESVKCAQYWPTDDQEMLFKETGFSVKLLSEDVKSYYTVHLLQLENINSGETRTISHFHYTTWPDFGVPESPASFLNFLFKVRESGSLNPDHGPAVIHCSAGIGRSGTFSLVDTCLVLMEKGDDINIKQVLLNMRKYRMGLIQTPDQLRFSYMAIIEGAKCIKGDSSIQKRWKELSKEDLSPAFDHSPNKIMTEKYN | soluble |
| MPVLHNRISNDELKAKMLAESEPRTTISFYKYFTIASPQQTRDALYQVFTALDVFGRVYLAHEGINAQISVPQSKLETFRQQLYTFDPALDGVRLNIALEDDGKSFWVLRMKVRDRIVADGIDDPTFDASNVGDYLKAADVNAMLDDPDAVFIDMRNHYEYEVGHFENALEIPADTFREQLPKAVEMLREHADKKIVMYCTGGIRCEKASAWMKHNGFNKVWHIEGGIIEYARRARAQGLPVRFIGKNFVFDERMGERISDEVIAHCHQCGASCDSHTNCKNDGCHLLFIQCPQCASKFNGCCSEQCCEELALPEEEQRRRRAGRENGNKIFNKSRGRLNSKLSIPDPAE | not soluble |
| MPWIAKRRGHDADFFIMRIPRIYHPELLTSGTQISLCEDAANHIGRVLRMGPGQALQLFDGSNQVFDAEIISASKKSVEVQVMKGEIDDRESPLHIHLGQVMSRGEKMEFTIQKSIELGVSLITPLFSERCGVKLDSERLNKKRQQWQKIAIAACEQCGRNRVPEIRPPMALEAWCAEQDSGLKLNLHPRAHASINTLPLPVERVRLLIGPEGGLSADEIAMTARYQFTDILLGPRVLRTETTALTAITALQVRFGDLG | not soluble |
| MPYEADDYLSRHFQTSGTDLARKVDELAALAAPGDSPNLALYREMLFTVTRMAQADRNRWDAKIMLQTLREMEHAFSVLEQFKRRRKVTVFGSARTPVEHPVYALARKLGEELARYDLMVITGAGGGIMAAAHEGAGLENSLGFNITLPFEQHANHTVDGSGNLLSFHFFFLRKLFFVKEADALVLCPGGFGTLDEALEVLTLVQTGKSPLVPIVLLDQPGGRYWEHALEFMQEQLLENHYILPADMRLMRLVHSAEDAVKEIAQFYRNFHSSRWLKGTFVIRLNHALNEAALAHLHEHFASLCLSGGFQQQAYSEQEQDEPEFRNLTRLAFVFNGRDQGRLRELLDYINLPENWD | not soluble |
| MPYLNADRGKSGGYHIGHTLLWSSGKSRLEAIRYHVETSALEKIMFARLLSSERDEYSSEETEHRFDEGLQIYGYSPEDVSKARNKMAGFLAGWRHAVSVRRASMEQSADTEQ | soluble |
| MQAFEPYIALNSHVRKPVIHISLNPSPKDILSKEQMTVLAQEFMEKFGYGNQPYIVWLHEDIDRKHMHIISVRINEKGEKIDHNREAIRAQNICRDMEVKYGLHSTLGEHSERELLSLQKVDYPKGDVKAQVKHTARTLLECYNCHSLAEYNTLLNLYNVTVYEVRGSVDGKEYYGIMYGALDDDGQQAGTPFKSSKFGKVFGYEALQKKFAATAEKVKRNSLAERARQEIVKAMQDISTKEAFARRLKDADIEVVYRINPEGRLYGITFIDHTNRTVFNGSRLGKAFSANVFNELFNNPDADRTKLIPPPEQDTPRQARETDAEERQEREEYRQQENRGNYQSEPSGSLIDTSALGAIDIFSVLMEDDHTHEYIDPAFRFGHKKKKKRRRRLLEHHHHHH | soluble |
| MQDLPPCPKCNDAYTYHDGTQLICPSCLYEWNENEVNDEELIVKDCHNNLLQNGDSVILIKDLKVKNSSLVLKKGTKIKNTKLVNSDHNVDCKIEGQSLSLKSEFLKKA | not soluble |
| MQEIQLSPADDLQQALNNSQNGDVITLGPGSYFGNFIISNQVTLRSNNKGEAIIDSQGKGHGLWLKNSQITIENLTITNWGHDLTDQNSGIYSHGKIDNNKVPSLTIRNNILIGDGFGIWLNQADKAIISHNRVKGNLTLRSADRGNGIQVANVTNSHVFLNEVSETRDGVYVISSQNNIIEQNTMHHLRYGIHYMYSYDNTVKNNTAYDTRAGYALMSSRRLTITGNKTTNSEDYGFLLNFITQSTFSHNYVKNVWTKPENKVLGRDGKGLFVYNSGYNTVKHNIIDTAEIGIHLTAGSENIKIFGNSFINNPTQVKYVSNKKQEWSKDGRGNYWSNYLGWDMGNDGIGDTIFEPNDGIDKLVWQYPEMKMIMDSPAILILRWVQRQFPVLKPPGVKDSFPLMSAPSLTKNEQAATPLAVTTSTFTKSNSAQSANTTSASLKELEHHHHHH | not soluble |
| MQEKQLKTIQNKIASWIKEIESAFIDELFSKIGPSKMLRSKLMLALLNEKTDAILLDKAFNLCAIVEMIQTASLLHDDVIDKAAMRRKLPSINALFGNFNAVMLGDVFYSKAFFELSKMGESIAKSLSNAVLRLSRGEIEDVFVGGSFNSDKQKYWRILEDKTAHFIEASLKSMAILLNKDAKMYADFGLNFGMAFQIIDDLLDITQDAKTLGKPNFSDFKEGKTTLPYLLLYEKLNQRDQGLLISYFKQDSHEIIEWTKEKFKQYGTIEETLKIAQVYSKKALEAIKGENNLILEKLAQDVIYRTF | not soluble |
| MQENQQITKKEQYNLNKLQKRLRRNVGEAIADFNMIEEGDRIMVCLSGGKDSYTMLEILRNLQQSAPINFSLVAVNLDQKQPGFPEHVLPEYLEKLGVEYKIVEENTYGIVKEKIPEGKTTCSLCSRLRRGILYRTATELGATKIALGHHRDDILQTLFLNMFYGGKMKGMPPKLMSDDGKHIVIRPLAYCREKDIQRFADAKAFPIIPCNLCGSQPNLQRQVIADMLRDWDKRYPGRIETMFSAMQNVVPSHLCDTNLFDFKGITHGSEVVNGGDLAFDREEIPLQPACWQPEEDENQLDELRLNVVEVKLEHHHHHH | not soluble |
| MQERILFGTYTKKTSQGIYQGTLDTTAKTLTNDGLLAATQNPTYLALSAKDCLYSVDKEDDEGGIAAWQIDGQTAHKLNTVVAPGTPPAYVAVDEARQLVYSANYHKGTAEVMKIAADGALTLTDTVQHSGHGPRPEQDGSHIHYTDLTPDNRLAVIDLGSDKVYVYNVSDAGQLSEQSVLTMEAGFGPRHLVFSPDGQYAFLAGELSSQIASLKYDAQTGAFTQLGIVKTIPADYTAHNGAAAIRLSHDGHFLYVSNRGYNTLAVFAVTADGHLTLIQQISTEGDFPRDFDLDPTEAFVVVVNQNTDNATLYARDLTSGKLSLLQKDVTVPEGVCVRFLEHHHHHH | soluble |
